# Data published in patent publication US20180208664A1 (APOGENIX, published 2018).
# T1: APG293 (human CD95L-T4) (human)
# T1 chain: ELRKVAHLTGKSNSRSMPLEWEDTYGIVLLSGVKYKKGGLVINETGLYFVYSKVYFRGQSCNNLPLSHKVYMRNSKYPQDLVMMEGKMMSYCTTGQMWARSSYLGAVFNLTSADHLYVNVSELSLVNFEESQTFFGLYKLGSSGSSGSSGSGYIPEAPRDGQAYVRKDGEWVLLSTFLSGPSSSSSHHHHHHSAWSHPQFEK
# Molecular target: T1, APG293 (human CD95L-T4)
# Test: cell-based or functional assay
Binder,"EC50, Assay 1: antagonism of CD95L-T4-induced apoptosis on Jurkat A3 cells","EC50, Assay 2: antagonism of CD95L-T4-induced apoptosis on Jurkat A3 cells","EC50, Assay 3: antagonism of CD95L-T4-induced apoptosis on Jurkat A3 cells","EC50, Assay 4: antagonism of CD95L-T4-induced apoptosis on Jurkat A3 cells","EC50, Mean: antagonism of CD95L-T4-induced apoptosis on Jurkat A3 cells","EC50, Assay 5: antagonism of CD95L-T4-induced apoptosis on Jurkat A3 cells","EC50, Assay 6: antagonism of CD95L-T4-induced apoptosis on Jurkat A3 cells"
"APG101 (Fc fusion, UniProt P25445 26-173, looked up, not shown: a dimerising Fc or GST) QVTDINSKGLELRKTVTTVETQNLEGLHHDGQFCHKPCPPGERKARDCTVNGDEPDCVPCQEGKEYTDKAHFSSKCRRCRLCDEGHGLEVEINCTRTQNTKCRCKPNFFCNSTVCEHCDPCTKCEHGIIKECTLTSNTKCKEEGSRSN",0.774 mg/L,0.789 mg/L,0.707 mg/L,0.714 mg/L,0.746 mg/L,,
scFv-minibody SEQ ID 37 (scFv) scFv: QSLEESGGDLVKPGASLTLTCTASGFSFSSGYDMCWVRQAPGKGLEWIACIDTDNDATYYASWAKGRFTISKPSSTTVLLQITSLTAADTATYFCATTHGDYVAFKLWGPGTLVTVSGGGSGGGSGGGSGGGSQVLTQTASSVSAAVGGTVTINCQSSQSVYKNNDLSWYQQKPRQPPKLLIYQASKLASGVPSRFKGSGSGTQFTLTIGDLESDDGATYYCAGGYTASIYAFGGGTEVVGSGSSGQPREPQVYTLPPSREEMTKNQVSLTCLVKGFYPSDIAVEWESQGSPENNYKTTPPVLDSDGSFFLYSKLTVDKSRWQQGNVFSCSVMHEALHNHYTQKSLSLSPGSSSSSSAWSHPQFEK,0.124 mg/L,0.117 mg/L,,,0.118 mg/L,0.113 mg/L,0.118 mg/L
scFv-minibody SEQ ID 48 (scFv) scFv: QSLEESGGDLVKPGGTLTLTCTTSGFSFSDHYWMCWVRQAPGKGLEWIACIYTADSDSYYASWAKGRFTISKTSSTTVTLQMTSLTAADTATYFCARNGAYAGGPYGDLWGPGTLVTVSGGGSGGGSGGGSGGGSDIVMTQTPSSVEAAVGGTVTIKCQASQSIRTSLVWYQQKPGQPPKLLIYKASDLPSGVPSRFKGSGSGTQFTLTISDLESADAATYYCQSYDFRDTINNGHSFGGGTEVVVKGSGSSGQPREPQVYTLPPSREEMTKNQVSLTCLVKGFYPSDIAVEWESQGSPENNYKTTPPVLDSDGSFFLYSKLTVDKSRWQQGNVFSCSVMHEALHNHYTQKSLSLSPGSSSSSSAWSHPQFEK,,,0.116 mg/L,0.0908 mg/L,0.097 mg/L,0.0844 mg/L,0.0975 mg/L
scFv-minibody SEQ ID 38 (scFv) scFv: EVQLVESGGGLVQPGGSLRLSCAASGFSFSSGYDMCWVRQAPGKGLEWVACIDTDNDATYYASWAKGRFTISKDSSKNTLYLQMNSLRAEDTAVYYCARTHGDYVAFKLWGQGTLVTVSGGGSGGGSGGGSGGGSDIQMTQSPSSLSASVGDRVTITCQSSQSVYKNNDLSWYQQKPGKAPKLLIYQASKLASGVPSRFSGSGSGTDFTLTISSLQPEDFATYYCAGGYTASIYAFGQGTKVEIKGSGSSGQPREPQVYTLPPSREEMTKNQVSLTCLVKGFYPSDIAVEWESQGSPENNYKTTPPVLDSDGSFFLYSKLTVDKSRWQQGNVFSCSVMHEALHNHYTQKSLSLSPGSSSSSSAWSHPQFEK,0.118 mg/L,0.114 mg/L,,,0.11 mg/L,0.0957 mg/L,0.111 mg/L
scFv-minibody SEQ ID 40 (scFv) scFv: EVQLVESGGGLVQPGGSLRLSCAASGFSFSSGYDMSWVRQAPGKGLEWVSAIDTDNDATYYADSVKGRFTISKDSSKNTLYLQMNSLRAEDTAVYYCARTHGDYVAFKLWGQGTLVTVSGGGSGGGSGGGSGGGSDIQMTQSPSSLSASVGDRVTITCQSSQSVYKNNDLSWYQQKPGKAPKLLIYQASKLASGVPSRFSGSGSGTDFTLTISSLQPEDFATYYCAGGYTASIYAFGQGTKVEIKGSGSSGQPREPQVYTLPPSREEMTKNQVSLTCLVKGFYPSDIAVEWESQGSPENNYKTTPPVLDSDGSFFLYSKLTVDKSRWQQGNVFSCSVMHEALHNHYTQKSLSLSPGSSSSSSAWSHPQFEK,0.532 mg/L,0.591 mg/L,,,0.599 mg/L,0.701 mg/L,0.571 mg/L
scFv-minibody SEQ ID 39 (scFv) scFv: EVQLVESGGGLVQPGGSLRLSCAASGFSFSSGYDMCWVRQAPGKGLEWVACIDTDNDATYYADSVKGRFTISKDSSKNTLYLQMNSLRAEDTAVYYCARTHGDYVAFKLWGQGTLVTVSGGGSGGGSGGGSGGGSDIQMTQSPSSLSASVGDRVTITCQSSQSVYKNNDLSWYQQKPGKAPKLLIYQASKLASGVPSRFSGSGSGTDFTLTISSLQPEDFATYYCAGGYTASIYAFGQGTKVEIKGSGSSGQPREPQVYTLPPSREEMTKNQVSLTCLVKGFYPSDIAVEWESQGSPENNYKTTPPVLDSDGSFFLYSKLTVDKSRWQQGNVFSCSVMHEALHNHYTQKSLSLSPGSSSSSSAWSHPQFEK,0.0994 mg/L,0.105 mg/L,,,0.093 mg/L,0.0865 mg/L,0.0834 mg/L
scFv-minibody SEQ ID 49 (scFv) scFv: EVQLVESGGGLVQPGGSLRLSCAASGFSFSDHYWMCWVRQAPGKGLEWVACIYTADSDSYYASWAKGRFTISKDSSKNTLYLQMNSLRAEDTAVYYCARNGAYAGGPYGDLWGQGTLVTVSGGGSGGGSGGGSGGGSDIQMTQSPSSLSASVGDRVTITCKASQSIRTSLVWYQQKPGKAPKLLIYKASDLPSGVPSRFSGSGSGTDFTLTISSLQPEDFATYYCQSYDFRDTINNGHSFGQGTKVEIKGSGSSGQPREPQVYTLPPSREEMTKNQVSLTCLVKGFYPSDIAVEWESQGSPENNYKTTPPVLDSDGSFFLYSKLTVDKSRWQQGNVFSCSVMHEALHNHYTQKSLSLSPGSSSSSSAWSHPQFEK,,,0.172 mg/L,0.144 mg/L,0.14 mg/L,0.117 mg/L,0.127 mg/L
scFv-minibody SEQ ID 50 (scFv) scFv: EVQLVESGGGLVQPGGSLRLSCAASGFSFSDHYWMCWVRQAPGKGLEWVACIYTADSDSYYADSVKGRFTISKDSSKNTLYLQMNSLRAEDTAVYYCARNGAYAGGPYGDLWGQGTLVTVSGGGSGGGSGGGSGGGSDIQMTQSPSSLSASVGDRVTITCKASQSIRTSLVWYQQKPGKAPKLLIYKASDLPSGVPSRFSGSGSGTDFTLTISSLQPEDFATYYCQSYDFRDTINNGHSFGQGTKVEIKGSGSSGQPREPQVYTLPPSREEMTKNQVSLTCLVKGFYPSDIAVEWESQGSPENNYKTTPPVLDSDGSFFLYSKLTVDKSRWQQGNVFSCSVMHEALHNHYTQKSLSLSPGSSSSSSAWSHPQFEK,,,0.169 mg/L,0.136 mg/L,0.143 mg/L,0.128 mg/L,0.14 mg/L
scFv-minibody SEQ ID 51 (scFv) scFv: EVQLVESGGGLVQPGGSLRLSCAASGFSFSDHYWMSWVRQAPGKGLEWVSAIYTADSDSYYADSVKGRFTISKDSSKNTLYLQMNSLRAEDTAVYYCARNGAYAGGPYGDLWGQGTLVTVSGGGSGGGSGGGSGGGSDIQMTQSPSSLSASVGDRVTITCKASQSIRTSLVWYQQKPGKAPKLLIYKASDLPSGVPSRFSGSGSGTDFTLTISSLQPEDFATYYCQSYDFRDTINNGHSFGQGTKVEIKGSGSSGQPREPQVYTLPPSREEMTKNQVSLTCLVKGFYPSDIAVEWESQGSPENNYKTTPPVLDSDGSFFLYSKLTVDKSRWQQGNVFSCSVMHEALHNHYTQKSLSLSPGSSSSSSAWSHPQFEK,,,1.55 mg/L,2.26 mg/L,1.76 mg/L,1.48 mg/L,1.74 mg/L
